The series “cryo-EM structure” concerns the molecule itself. The series can be described thus: cryo-EM structure.
Series [1] has as its target rat GluA2 flip(Q) isoform (unedited homotetrameric AMPA receptor), FLAG-tagged (rat, UniProt P19491-2 22-883). As to the kind of experiment: cryo-EM structure.

B1: rat GluA2 flip(Q) isoform N619K mutant, FLAG-tagged (receptor, UniProt P19491-2 22-883, looked up)
chain: VSSNSIQIGGLFPRGADQEYSAFRVGMVQFSTSEFRLTPHIDNLEVANSFAVTNAFCSQFSRGVYAIFGFYDKKSVNTITSFCGTLHVSFITPSFPTDGTHPFVIQMRPDLKGALLSLIEYYQWDKFAYLYDSDRGLSTLQAVLDSAAEKKWQVTAINVGNINNDKKDETYRSLFQDLELKKERRVILDCERDKVNDIVDQVITIGKHVKGYHYIIANLGFTDGDLLKIQFGGANVSGFQIVDYDDSLVSKFIERWSTLEEKEYPGAHTATIKYTSALTYDAVQVMTEAFRNLRKQRIEISRRGNAGDCLANPAVPWGQGVEIERALKQVQVEGLSGNIKFDQNGKRINYTINIMELKTNGPRKIGYWSEVDKMVVTLTELPSGNDTSGLENKTVVVTTILESPYVMMKKNHEMLEGNERYEGYCVDLAAEIAKHCGFKYKLTIVGDGKYGARDADTKIWNGMVGELVYGKADIAIAPLTITLVREEVIDFSKPFMSLGISIMIKKPQKSKPGVFSFLDPLAYEIWMCIVFAYIGVSVVLFLVSRFSPYEWHTEEFEDGRETQSSESTNEFGIFNSLWFSLGAFMQQGCDISPRSLSGRIVGGVWWFFTLIIISSYTAKLAAFLTVERMVSPIESAEDLSKQTEIAYGTLDSGSTKEFFRRSKIAVFDKMWTYMRSAEPSVFVRTTAEGVARVRKSKGKYAYLLESTMNEYIEQRKPCDTMKVGGNLDSKGYGIATPKGSSLGTPVNLAVLKLSEQGVLDKLKNKWWYDKGECGAKDSGSKEKTSALSLSNVAGVFYILVGGLGLAMLVALIEFCYKSRAEAKRMKVAKNPQNINPSSSQNSQNFATYKEGYNVYGIESVKI
With B1, the binding result in “cryo-EM structure” was “binds”.

B2: rat TARPγ2 (stargazin) K52E/K53E (KKEE) mutant, 1D4-tagged (natural protein)
chain: MGLFDRGVQMLLTTVGAFAAFSLMTIAVGTDYWLYSRGVCKTKSVSENETSEENEEVMTHSGLWRTCCLEGNFKGLCKQIDHFPEDADYEADTAEYFLRAVRASSIFPILSVILLFMGGLCIAASEFYKTRHNIILSAGIFFVSAGLSNIIGIIVYISANAGDPSKSDSKKNSYSYGWSFYFGALSFIIAEMVGVLAVHMFIDRHKQLRATARATDYLQASAITRIPSYRYRYQRRSRSSSRSTEPSHSRDASPVGVKGFNTLPSTEISMYTLSRDPLKAATTPTATYNSDRDNSFLQVHNCIQKDSKDSLHANTANRRTTPV
Regarding B2, in series [1], the “stoichiometry N” value was 4 γ2(KKEE) per A2iQ tetramer.

(Values after article PMC11536930 (Nature structural & molecular biology, 2024).)
